Measured values taken from publication doi:10.1101/2025.10.03.680225.

Tests used:
[1] = target: GAPDH-wt (UniProt P04406 1-335); test: fluorescence anisotropy
[2] = target: GAPDH-K215E (UniProt P04406 1-335, K215E); test: fluorescence anisotropy
Sequence of GAPDH-K215E (P04406 whole entry K215E): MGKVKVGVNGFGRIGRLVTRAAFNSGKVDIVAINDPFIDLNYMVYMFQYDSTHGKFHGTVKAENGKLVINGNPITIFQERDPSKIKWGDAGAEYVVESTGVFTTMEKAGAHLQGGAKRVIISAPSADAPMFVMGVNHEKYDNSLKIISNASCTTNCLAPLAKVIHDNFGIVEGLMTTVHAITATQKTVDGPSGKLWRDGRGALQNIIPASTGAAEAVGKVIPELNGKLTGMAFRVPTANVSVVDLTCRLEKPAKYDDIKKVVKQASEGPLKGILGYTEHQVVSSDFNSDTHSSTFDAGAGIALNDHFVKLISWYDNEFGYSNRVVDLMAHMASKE

Sequence of GAPDH-wt (P04406 whole entry): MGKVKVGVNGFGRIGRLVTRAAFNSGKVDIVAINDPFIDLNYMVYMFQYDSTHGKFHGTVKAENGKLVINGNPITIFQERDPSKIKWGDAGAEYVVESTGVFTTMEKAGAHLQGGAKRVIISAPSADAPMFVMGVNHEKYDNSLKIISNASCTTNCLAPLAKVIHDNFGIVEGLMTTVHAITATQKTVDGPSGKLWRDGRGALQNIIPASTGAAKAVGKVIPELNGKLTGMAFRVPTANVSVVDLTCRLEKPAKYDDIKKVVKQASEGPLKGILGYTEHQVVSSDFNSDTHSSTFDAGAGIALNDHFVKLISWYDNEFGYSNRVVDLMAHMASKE

AAAAAAAAAAAAAAAAAAAA (ssRNA) [20A-RNA]
Kd [1]: 132 ± 10 nM | Kd [2]: 3100 ± 217 nM
